Where “and” joins values, the source holds several entries; their conditions need not be identical. Identical values can stand only once.
Assays:
galectin-1 = experiment: microplate binding assay, complex adsorbed in wells, biotin-streptavidin visualisation; settings: scale: µg of macromolecular complex per 10 ng of galectin-1
TLR-6 = experiment: as above

Row | concentration at saturation (galectin-1) | concentration at saturation (µg of macromolecule per 10 ng of TLR6) (TLR-6) | Substance
1 | 10 and 20 | 10 and 20 | macromolecular complex of Bifidobacterium longum CBi0703 (CNCM I-3994), prepared according to example 2 (fermentation with pH not regulated)
2 | 20 and 10 | 10 and 20 | macromolecular complex of Bifidobacterium longum CBi0703 (CNCM I-3994), prepared according to example 1 (fermentation with pH regulated)
